# Measurements published in patent US20050181450A1, “Novel inositol 1,4,5-trisphosphate (IP3) receptor-binding protein and an IP3 indicator” (priority 2002, published 2005).
# T1: type II phosphatidylinositol phosphate kinase β (Homo sapiens, UniProt P78356)
# T1 construct: expressed in transfected cells; host or cells: Cos-7
# T1 sequence (P78356 1-416): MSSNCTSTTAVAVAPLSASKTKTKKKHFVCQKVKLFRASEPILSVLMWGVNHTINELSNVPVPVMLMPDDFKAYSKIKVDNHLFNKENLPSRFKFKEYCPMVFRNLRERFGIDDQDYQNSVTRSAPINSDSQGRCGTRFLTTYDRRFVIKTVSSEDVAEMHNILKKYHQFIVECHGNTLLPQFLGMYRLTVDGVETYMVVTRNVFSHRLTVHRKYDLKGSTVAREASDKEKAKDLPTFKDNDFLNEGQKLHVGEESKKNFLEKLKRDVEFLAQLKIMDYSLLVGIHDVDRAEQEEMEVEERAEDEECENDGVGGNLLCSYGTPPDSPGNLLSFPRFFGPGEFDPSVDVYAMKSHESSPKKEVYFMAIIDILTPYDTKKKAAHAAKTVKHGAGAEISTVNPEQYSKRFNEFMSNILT
# B1: IRBIT: novel IP3 receptor-binding protein of 530 amino acids, SEQ ID NO: 1 (protein, listed as Mus musculus)
# chain: MSMPDAMPLPGVGEELKQAKEIEDAEKYSFMATVTKAPKKQIQFADDMQEFTKFPTKTGRRSLSRSISQSSTDSYSSAASYTDSSDDEVSPREKQQTNSKGSSNFCVKNIKQAEFGRREIEIAEQDMSALISLRKRAQGEKPLAGAKIVGCTHITAQTAVLIETLCALGAQCRWSACNIYSTQNEVAAALAEAGVAVFAWKGESEDDFWWCIDRCVNMDGWQANMILDDGGDLTHWVYKKYPNVFKKIRGIVEESVTGVHRLYQLSKAGKLCVPAMNVNDSVTKQKFDNLYCCRESILDGLKRTTDVMFGGKQVVVCGYGEVGKGCCAALKALGAIVYITEIDPICALQACMDGFRVVKLNEVIRQVDVVITCTGNKNVVTREHLDRMKNSCIVCNMGHSNTEIDVTSLRTPELTWERVRSQVDHVIWPDGKRVVLLAEGRLLNLSCSTVPTFVLSITATTQALALIELYNAPEGRYKQDVYLLPKKMDEYVASLHLPSFDAHLTELTDDQAKYLGLNKNGPFKPNYYRY
# What was measured:
# [1] = molecular target: T2, K508A mutant of GST-IbIIa (Mus musculus, UniProt P11881, K508A); test: GST pulldown with K508A; type: binding; conditions: IRBIT in high salt extract
# T2 construct: GST-IbIIa (amino acids 224-604 of mouse IP3R1) and its site-directed mutants K508A and R441Q; made in house
# T2 sequence (P11881 224-604 K508A): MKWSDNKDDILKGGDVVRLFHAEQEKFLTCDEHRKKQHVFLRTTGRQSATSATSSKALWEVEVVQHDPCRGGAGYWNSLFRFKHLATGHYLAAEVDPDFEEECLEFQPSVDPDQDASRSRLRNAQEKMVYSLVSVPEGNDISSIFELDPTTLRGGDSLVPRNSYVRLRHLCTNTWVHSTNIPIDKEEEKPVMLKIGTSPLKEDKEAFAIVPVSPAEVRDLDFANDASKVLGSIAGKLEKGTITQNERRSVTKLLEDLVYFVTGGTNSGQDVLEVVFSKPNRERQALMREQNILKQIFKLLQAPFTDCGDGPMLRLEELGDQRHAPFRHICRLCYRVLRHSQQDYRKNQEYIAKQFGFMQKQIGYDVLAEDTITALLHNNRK
# Text: (§1) The cDNAs encoding the full-length and N-terminal region (amino acids 1-104) of IRBIT were subcloned into the Escherichia coli hexahistidine (His) fusion vector pET-23a(+) (Novagen) to generate IRBIT-His and IRBIT(1-104)-His expression vectors, respectively. The same cDNAs were subcloned into the GST fusion vector pGEX-4T-1 (Amersham Pharmacia Biotech) to generate GST-IRBIT and GST-IRBIT(1-104) expression vectors, respectively. The cDNA fragments encoding the amino acids 1-225, 1-343, 341-923, 600-1248, 916-1581 and 1553-1943 of the amino acid sequence (SEQ ID NO: 7) of mouse IP3R1 were inserted into pGEX-KG to generate GST-Ia, GST-Iab, GST-IIab, GST-IIbIIIa, GST-IIIab and GST-IV expression vectors, respectively. The amino acids 1593-2217 of mouse IP3R1 were inserted into pGEX-4T-1 to obtain GST-IV-Va expression vector. These fusion proteins were expressed in Escherichia coli. GST-EL was expressed in Sf9 cells as described above. […]
# (§2) For the determination of the IRBIT binding region and the critical amino acid residue of IP3R1, the diluted high salt extract was subjected to pulldown assay as described above with 100 pmol of GST, GST-EL, GST-Ia, GST-Iab, GST-IbIIa, GST-IIab, GST-IIbIIIa, GST-IIIab, GST-IV, GST-IV-Va, K508A or R441Q, and analyzed by Western blotting with anti-IRBIT antibody.
# [2] = molecular target: T1, type II phosphatidylinositol phosphate kinase β; test: Co-immunoprecipitation in Cos-7 cells with Myc-PIPKII β; type: binding; conditions: overexpressing Cos-7 cells
# Method: (A and B) IRBIT was transfected into Cos-7 cells with Myc-tagged type II phosphatidylinositol phosphate kinase α, β or γ (PIPKII α, β or γ). After two days, cells were lysed in lysis buffer, followed by centrifugation (100,000×g, 30 min). The supernatants were incubated with 3 μg of anti-IRBIT antibody, rabbit IgG, mouse anti-Myc antibody, or mouse IgG for 1 h at 4° C. After adding 5 μl of Protein G beads and another 1-h incubation, the beads were washed five times with lysis buffer and analyzed by Western blotting with anti-IRBIT antibody or HRP conjugated anti-Myc antibody. Immunoprecipitation of Myc-PIPKII α, β or γ with anti-Myc antibody co-precipitated IRBIT (A). In the reciprocal experiments, immunoprecipitation of IRBIT with anti-IRBIT antibody precipitated Myc-PIPKII α, β or γ.
# IRBIT was transfected into Cos-7 cells with Myc-tagged type II phosphatidylinositol phosphate kinase α, β or γ (PIPKII α, β or γ). After two days, cells were lysed in lysis buffer, followed by centrifugation (100,000×g, 30 min). The supernatants were incubated with 3 μg of anti-IRBIT antibody, rabbit IgG, mouse anti-Myc antibody, or mouse IgG for 1 h at 4° C. After adding 5 μl of Protein G beads and another 1-h incubation, the beads were washed five times with lysis buffer and analyzed by Western blotting with anti-IRBIT antibody or HRP conjugated anti-Myc antibody.
# IP3R1 = molecular target: T3, IP3R1 (Mus musculus, UniProt P11881, N1264K/P2675L); test: Co-immunoprecipitation from mouse cerebellar crude microsome; type: binding; conditions: detergent extract of mouse cerebellar crude microsome
# T3 construct: from tissue; host or cells: mouse cerebellum, detergent extract of crude microsome
# T3 sequence (P11881 whole entry N1264K/P2675L): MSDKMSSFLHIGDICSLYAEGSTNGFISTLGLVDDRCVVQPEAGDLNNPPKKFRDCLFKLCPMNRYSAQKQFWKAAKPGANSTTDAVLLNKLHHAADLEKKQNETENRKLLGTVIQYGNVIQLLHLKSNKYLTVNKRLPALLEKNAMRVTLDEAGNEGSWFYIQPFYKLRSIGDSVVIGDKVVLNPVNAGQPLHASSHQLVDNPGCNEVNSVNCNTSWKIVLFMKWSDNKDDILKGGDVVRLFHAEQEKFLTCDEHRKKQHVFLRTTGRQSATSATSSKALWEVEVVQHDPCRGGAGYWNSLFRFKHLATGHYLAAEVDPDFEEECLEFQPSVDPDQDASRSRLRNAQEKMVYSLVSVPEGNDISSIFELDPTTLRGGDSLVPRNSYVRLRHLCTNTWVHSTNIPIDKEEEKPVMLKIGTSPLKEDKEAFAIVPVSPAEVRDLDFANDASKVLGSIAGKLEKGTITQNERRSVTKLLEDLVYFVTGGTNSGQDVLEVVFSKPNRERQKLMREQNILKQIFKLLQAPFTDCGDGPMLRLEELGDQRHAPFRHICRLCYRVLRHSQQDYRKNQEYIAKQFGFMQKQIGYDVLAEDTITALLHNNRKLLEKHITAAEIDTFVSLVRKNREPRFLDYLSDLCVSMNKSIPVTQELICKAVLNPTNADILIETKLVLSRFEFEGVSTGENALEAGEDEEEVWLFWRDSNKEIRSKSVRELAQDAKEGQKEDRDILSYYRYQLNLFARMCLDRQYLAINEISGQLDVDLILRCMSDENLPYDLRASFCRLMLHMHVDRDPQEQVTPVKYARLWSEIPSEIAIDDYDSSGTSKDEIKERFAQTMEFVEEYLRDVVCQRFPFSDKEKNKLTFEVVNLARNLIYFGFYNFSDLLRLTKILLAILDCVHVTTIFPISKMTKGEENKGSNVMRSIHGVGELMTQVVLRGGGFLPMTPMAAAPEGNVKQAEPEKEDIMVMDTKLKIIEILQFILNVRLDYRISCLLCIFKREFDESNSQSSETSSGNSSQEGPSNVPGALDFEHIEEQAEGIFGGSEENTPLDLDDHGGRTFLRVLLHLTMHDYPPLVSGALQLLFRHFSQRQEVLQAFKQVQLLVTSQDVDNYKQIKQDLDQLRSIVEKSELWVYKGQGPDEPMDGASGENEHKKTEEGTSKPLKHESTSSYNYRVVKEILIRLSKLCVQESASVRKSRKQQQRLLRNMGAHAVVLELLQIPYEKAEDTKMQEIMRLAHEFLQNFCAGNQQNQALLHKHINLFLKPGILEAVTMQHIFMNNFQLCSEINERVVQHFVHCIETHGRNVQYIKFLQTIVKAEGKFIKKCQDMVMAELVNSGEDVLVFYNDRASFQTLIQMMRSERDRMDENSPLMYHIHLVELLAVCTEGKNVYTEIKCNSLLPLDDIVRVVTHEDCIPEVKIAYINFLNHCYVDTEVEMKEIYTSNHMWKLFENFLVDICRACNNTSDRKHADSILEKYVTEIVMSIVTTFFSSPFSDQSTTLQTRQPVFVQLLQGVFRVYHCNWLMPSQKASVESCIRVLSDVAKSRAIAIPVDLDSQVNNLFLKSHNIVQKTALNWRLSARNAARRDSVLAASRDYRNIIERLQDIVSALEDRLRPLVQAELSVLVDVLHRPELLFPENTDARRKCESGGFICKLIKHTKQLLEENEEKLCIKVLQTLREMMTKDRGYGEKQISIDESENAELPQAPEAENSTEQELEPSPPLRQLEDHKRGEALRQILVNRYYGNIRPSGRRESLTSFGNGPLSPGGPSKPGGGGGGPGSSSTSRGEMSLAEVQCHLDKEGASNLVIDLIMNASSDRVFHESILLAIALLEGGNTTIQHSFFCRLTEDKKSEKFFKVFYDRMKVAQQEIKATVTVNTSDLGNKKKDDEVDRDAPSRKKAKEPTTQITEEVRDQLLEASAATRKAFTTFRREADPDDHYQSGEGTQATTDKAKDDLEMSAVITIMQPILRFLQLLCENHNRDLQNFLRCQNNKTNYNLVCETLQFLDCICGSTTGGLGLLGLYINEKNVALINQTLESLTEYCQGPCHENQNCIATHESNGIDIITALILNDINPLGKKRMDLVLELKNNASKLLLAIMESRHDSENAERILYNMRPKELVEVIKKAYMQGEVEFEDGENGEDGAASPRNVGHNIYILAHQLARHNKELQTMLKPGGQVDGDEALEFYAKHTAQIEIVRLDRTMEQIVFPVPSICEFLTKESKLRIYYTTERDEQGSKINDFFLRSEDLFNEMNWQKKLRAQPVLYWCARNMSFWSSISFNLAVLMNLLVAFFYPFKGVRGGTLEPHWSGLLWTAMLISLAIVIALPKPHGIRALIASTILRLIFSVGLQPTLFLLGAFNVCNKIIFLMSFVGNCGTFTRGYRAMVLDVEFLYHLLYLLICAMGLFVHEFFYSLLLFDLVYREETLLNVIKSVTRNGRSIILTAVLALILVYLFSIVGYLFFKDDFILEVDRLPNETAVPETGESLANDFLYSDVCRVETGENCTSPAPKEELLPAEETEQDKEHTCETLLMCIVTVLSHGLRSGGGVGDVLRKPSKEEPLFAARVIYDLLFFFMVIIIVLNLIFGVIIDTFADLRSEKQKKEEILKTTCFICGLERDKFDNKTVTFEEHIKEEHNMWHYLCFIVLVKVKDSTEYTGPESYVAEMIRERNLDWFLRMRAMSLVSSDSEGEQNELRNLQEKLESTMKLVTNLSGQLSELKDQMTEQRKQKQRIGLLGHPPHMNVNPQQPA
# Method: The detergent extract of mouse cerebellar crude microsome was immunoprecipitated with anti-IRBIT antibody or control antibody. The immunoprecipitates were subjected to SDS-PAGE followed by Western blotting with anti-IP3R1 antibody (upper panel) or anti-IRBIT (lower panel) antibody.
# Detergent-solubilized extract from the crude microsome was prepared with 1% Nonidet P-40-containing 50 mM Hepes (pH 7.4), 1 mM MgCl2, and protease inhibitors for 30 minutes at 4° C., and centrifuged at 20,000×g for 30 minutes. The supernatant was diluted 10-fold in an immunoprecipitation buffer (10 mM Hepes (pH 7.4), 150 mM NaCl, 1 mM MgCl2, and 1% Nonidet P-40) and incubated with rabbit anti-IRBIT antibody (3 μg) or control rabbit IgG (3 μg) for 2 hours at 4° C. Protein G Sepharose 4 fast flow (Amersham Pharmacia Biotech) was added for reaction with immune complexes for 2 hours at 4° C. Resins were washed three times with an immunoprecipitation buffer and subjected to Western blotting with anti-IRBIT antibody or mouse anti-IP3R1 antibody KM1112 (47).
# [3] = molecular target: T4, GST-IbIIa (IP3-binding region of mouse IP3R1) (Mus musculus, UniProt P11881); test: GST pulldown with GST-IbIIa; conditions: IRBIT in high salt extract
# T4 construct: GST-IbIIa (amino acids 224-604 of mouse IP3R1) and its site-directed mutants K508A and R441Q; made in house
# T4 sequence (P11881 224-604): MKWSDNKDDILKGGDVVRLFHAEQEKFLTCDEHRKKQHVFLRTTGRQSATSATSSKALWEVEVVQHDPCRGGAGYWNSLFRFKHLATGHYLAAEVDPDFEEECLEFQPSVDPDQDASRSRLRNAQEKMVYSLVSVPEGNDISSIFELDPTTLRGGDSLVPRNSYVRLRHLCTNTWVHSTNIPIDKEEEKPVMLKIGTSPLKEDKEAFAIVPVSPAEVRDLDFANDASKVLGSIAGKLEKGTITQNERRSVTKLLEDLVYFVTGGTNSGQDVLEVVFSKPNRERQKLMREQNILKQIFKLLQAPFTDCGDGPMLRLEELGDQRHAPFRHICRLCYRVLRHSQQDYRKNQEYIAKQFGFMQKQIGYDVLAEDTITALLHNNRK
# Text: as §1, §2
molecule,measurement,setting,value
B1,binding to K508A,[1],did not bind
same,interaction with PIPKII β,[2],interacted
same,co-immunoprecipitation of IP3R1 with anti-IRBIT antibody,IP3R1,co-immunoprecipitated
same,binding to GST-IbIIa,[3],to the same extent as GST-EL
